Assay results as given in paper PMC11098746 (2024).

B1: ADP377 (protein)
chain: FSECNKCDEKKERGLPAGDVLEPVQKPHEGPGEMGKPVVIPKEDQEKMKEMFKINQFNLMASEMIALNRSLPDVRLEGCKTKVYPDNLPTTSVVIVFHNEAWSTLLRTVHSVINRSPRHMIEEIVLVDDASERDFLKRPLESYVKKLKVPVHVIRMEQRSGLIRARLKGAAVSKGQVITFLDAHCECTVGWLEPLLARIKHDRRTVVCPIIDVISDDTFEYMAGSDMTYGGFNWKLNFRWYPVPQREMDRRKGDRTLPVRTPTMAGGLFSIDRDYFQEIGTYDAGMDIWGGENLEISFRIWQCGGTLEIVTCSHVGHVFRKATPYTFPGGTGQIINKNNRRLAEVWMDEFKNFFYIISPGVTKVDYGDISSRVGLRHKLQCKPFSWYLENIYPDSQIPRHYFSLGEIRNVETNQCLDNMARKENEKVGIFNCHGMGGNQVFSYTANKEIRTDDLCLDVSKLNGPVTMLKCHHLKGNQLWEYDPVKLTLQHVNSNQCLDKATEEDSQVPSIRDCNGSRSQQWLLRNVTLPEIF
modifications: bait human Fc-tagged dimer
B2: ADP268 (protein)
chain: WEYGDLHLFGPNQRPAPCYDPCEAVLVESIPEGLDFPNASTGNPSTSQAWLGLLAGAHSSLDIASFYWTLTNNDTHTQEPSAQQGEEVLRQLQTLAPKGVNVRIAVSKPSGPQPQADLQALLQSGAQVRMVDMQKLTHGVLHTKFWVVDQTHFYLGSANMDWRSLTQVKELGVVMYNCSCLARDLTKIFEAYWFLGQAGSSIPSTWPRFYDTRYNQETPMEICLNGTPALAYLASAPPPLCPSGRTPDLKALLNVVDNARSFIYVAVMNYLPTLEFSHPHRFWPAIDDGLRRATYERGVKVRLLISCWGHSEPSMRAFLLSLAALRDNHTHSDIQVKLFVVPADEAQARIPYARVNHNKYMVTERATYIGTSNWSGNYFTETAGTSLLVTQNGRGGLRSQLEAIFLRDWDSPYSHDLDTSADSVGNACRLL
modifications: bait human Fc-tagged dimer
B3: ADP267 (protein)
chain: CKYKKSSGQLWSWMVCLAGLCAVCLLILSPFWGLILFSVSCFLMYTYLSGQELLPVDQKAVLVTGGDCGLGHALCKYLDELGFTVFAGVLNENGPGAEELRRTCSPRLSVLQMDITKPVQIKDAYSKVAAMLQDRGLWAVINNAGVLGFPTDGELLLMTDYKQCMAVNFFGTVEVTKTFLPLLRKSKGRLVNVSSMGGGAPMERLASYGSSKAAVTMFSSVMRLELSKWGIKVASIQPGGFLTNIAGTSDKWEKLEKDILDHLPAEVQEDYGQDYILAQRNFLLLINSLASKDFSPVLRDIQHAILAKSPFAYYTPGKGAYLWICLAHYLPIGIYDYFAKRHFGQDKPMPRALRMPNYKKKAT
modifications: bait human Fc-tagged dimer
B4: ADP115 (protein)
chain: MARPGQRWLGKWLVAMVVWALCRLATPLAKNLEPVSWSSLNPKFLSGKGLVIYPKIGDKLDIICPRAEAGRPYEYYKLYLVRPEQAAACSTVLDPNVLVTCNRPEQEIRFTIKFQEFSPNYMGLEFKKHHDYYITSTSNGSLEGLENREGGVCRTRTMKIIMKVGQDPNAVTPEQLTTSRPSKEADNTVKMATQAPGSRGSLGDSDGKHETVNQEEKSGPGASGGSSGDPDGFFNSKVAL
modifications: bait human Fc-tagged dimer
B5: ADP151 (protein)
chain: MALTLSVLICLGLSVGPRTCVQAGTLPKPTLWAEPASVIARGKPVTLWCQGPLETEEYRLDKEGLPWARKRQNPLEPGAKAKFHIPSTVYDSAGRYRCYYETPAGWSEPSDPLELVATGFYAEPTLLALPSPVVASGGNVTLQCDTLDGLLTFVLVEEEQKLPRTLYSQKLPKGPSQALFPVGPVTPSCRWRFRCYYYYRKNPQVWSNPSDLLEILVPGVSRKPSLLIPQGSVVARGGSLTLQCRSDVGYDIFVLYKEGEHDLVQGSGQQPQAGLSQANFTLGPVSRSHGGQYRCYGAHNLSPRWSAPSDPLDILIAGLIPDIPALSVQPGPKVASGENVTLLCQSWHQIDTFFLTKEGAAHPPLCLKSKYQSYRHQAEFSMSPVTSAQGGTYRCYSAIRSYPYLLSSPSYPQELVVSGPSGDPSLSPTGSTPTPGPEDQPLTPTGLDPQSGLG
modifications: bait human Fc-tagged dimer
B6: ADP284 (protein)
chain: SNAYSSPSVVLASYNHDGTRNILDDFREAYFWLRQNTDEHARVMSWWDYGYQIAGMANRTTLVDNNTWNNSHIALVGKAMSSNETAAYKIMRTLDVDYVLVIFGGVIGYSGDDINKFLWMVRIAEGEHPKDIRESDYFTPQGEFRVDKAGSPTLLNCLMYKMSYYRFGEMQLDFRTPPGFDRTRNAEIGNKDIKFKHLEEAFTSEHWLVRIYKVKAPDNRETLDHKPRVTNIFPKQKYLSKKTTKRKRGYIKNKLVFKKGKKISKKTV
modifications: bait human Fc-tagged dimer
B7: ADP320 (protein)
chain: MAAAPGLLVWLLVLRLPWRVPGQLDPSTGRRFSEHKLCADDECSMLMYRGEALEDFTGPDCRFVNFKKGDPVYVYYKLARGWPEVWAGSVGRTFGYFPKDLIQVVHEYTKEELQVPTDETDFVCFDGGRDDFHNYNVEELLGFLELYNSAATDSEKAVEKTLQDMEKNPELSKEREPEPEPVEANSEESDSVFSENTEDLQEQFTTQKHHSHANSQANHAQGEQASFESFEEMLQDKLKVPESENNKTSNSSQVSNEQDKIDAYKLLKKEMTLDLKTKFGSTADALVSDDETTRLVTSLEDDFDEELDTEYYAVGKEDEENQEDFDELPLLTFTDGEDMKTPAKSGVEKYPTDKEQNSNEEDKVQLTVPPGIKNDDKNILTTWGDTIFSIVTGGEETRDTMDLESSSSEEEKEDDDDALVPDSKQGKPQSATDYSDPDNVDDGLFIVDIPKTNNDKEVNAEHHIKGKGRGVQESKRGLVQDKTELEDENQEGMTVHSSVHSNNLNSMPAAEKGKDTLKSAYDDTENDLKGAAIHISKGMLHEEKPGEQILEGGSESESAQKAAGNQMNDRKIQQESLGSAPLMGDDHPNASRDSVEGDALVNGAKLHTLSVEHQREELKEELVLKTQNQPRFSSPDEIDLPRELEDEVPILGRNLPWQQERDVAATASKQMSEKIRLSEGEAKEDSLDEEFFHHKAMQGTEVGQTDQTDSTGGPAFLSKVEEDDYPSEELLEDENAINAKRSKEKNPGNQGRQFDVNLQVPDRAVLGTIHPDPEIEESKQETSMILDSEKTSETAAKGVNTGGREPNTMVEKERPLADKKAQRPFERSDFSDSIKIQTPELGEVFQNKDSDYLKNDNPEEHLKTSGLAGEPEGELSKEDHENTEKYMGTESQGSAAAEPEDDSFHWTPHTSVEPGHSDKREDLLIISSFFKEQQSLQRFQKYFNVHELEALLQEMSSKLKSAQQESLPYNMEKVLDKVFRASESQILSIAEKMLDTRVAENRDLGMNENNIFEEAAVLDDIQDLIYFVRYKHSTAEETATLVMAPPLEEGLGGAMEEMQPLHEDNFSREKTAELNVQVPEEPTHLDQRVIGDTHASEVSQKPNTEKDLDPGPVTTEDTPMDAIDANKQPETAAEEPASVTPLENAILLIYSFMFYLTKSLVATLPD
modifications: bait human Fc-tagged dimer
B8: ADP379 (protein)
chain: PCPDRPASQRMWRIDYSAAVIYDFLAVDDINGDRIQDVLFLYKNTNSSNNFSRSCVDEGFSSPCTFAAAVSGANGSTLWERPVAQDVALVECAVPQPRGSEAPSACILVGRPSSFIAVNLFTGETLWNHSSSFSGNASILSPLLQVPDVDGDGAPDLLVLTQEREEVSGHLYSGSTGHQIGLRGSLGVDGESGFLLHVTRTGAHYILFPCASSLCGCSVKGLYEKVTGSGGPFKSDPHWESMLNATTRRMLSHSSGAVRYLMHVPGNAGADVLLVGSEAFVLLDGQELTPRWTPKAAHVLRKPIFGRYKPDTLAVAVENGTGTDRQILFLDLGTGAVLCSLALPSLPGGPLSASLPTADHRSAFFFWGLHELGSTSETETGEARHSLYMFHPTLPRVLLELANVSTHIVAFDAVLFEPSRHAAYILLTGPADSEAPGLVSVIKHKVRDLVPSSRVVRLGEGGPDSDQAIRDRFSRLRYQSEA
modifications: bait human Fc-tagged dimer

target: Circumsporozoite protein (CSP) (Plasmodium falciparum (isolate 3D7), UniProt Q7K740); experiment: AVEXIS screen signal:noise (double-corrected)
Sequence (Q7K740 19-374): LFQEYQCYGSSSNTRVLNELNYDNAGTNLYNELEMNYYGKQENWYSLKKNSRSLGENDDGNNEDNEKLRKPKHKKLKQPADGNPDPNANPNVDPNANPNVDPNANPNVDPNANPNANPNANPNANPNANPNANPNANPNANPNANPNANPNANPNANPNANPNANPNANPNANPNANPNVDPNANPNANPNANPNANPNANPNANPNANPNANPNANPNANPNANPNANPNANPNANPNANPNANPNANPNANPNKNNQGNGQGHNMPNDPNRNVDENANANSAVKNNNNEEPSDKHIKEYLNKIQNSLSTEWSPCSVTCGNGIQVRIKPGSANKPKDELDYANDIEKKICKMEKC

Binder	binding score
B1	0.747
B2	0.585
B3	0.806
B4	1.09
B5	1.33
B6	0.868
B7	1.04
B8	2.44
